# Measurements published in the supplement of paper PMC10567573.
# B1: SPSB4 (parent)
# chain: LDMDEGTLSFIVDGQYLGVAFRGL
# Variants of: B1
# Test: protein stability index of a GFP-peptide fusion (GPS, HEK-293T) (PSI 1-6); higher = more stable
# Conditions: c terminus: a fixed tail appended
# 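Note: lentivirally expressed fusions sorted by FACS into six bins by GFP to DsRed ratio, PSI derived from sequencing read proportions per bin multiplied by bin number.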
row,Variant,protein stability index
1,LDMDEGTLSFIMDGQYLGVAFRGL [V12M],2.67
2,LDMDEGTLSFITDGQYLGVAFRGL [V12T],2.35
3,LDMDEGTLSFISDGQYLGVAFRGL [V12S],1.8
4,LDMDEGTLSFINDGQYLGVAFRGL [V12N],1.75
5,LDMDEGTLSFIKDGQYLGVAFRGL [V12K],1.79
6,LDMDEGTLSFIADGQYLGVAFRGL [V12A],1.96
7,LDMDEGTLSFIPDGQYLGVAFRGL [V12P],1.7
8,LDMDEGTLSFIWDGQYLGVAFRGL [V12W],3.35
9,LDMDEGTLSFIQDGQYLGVAFRGL [V12Q],1.58
10,LDMDEGTLSFILDGQYLGVAFRGL [V12L],1.26
11,LDMDEGTLSFIYDGQYLGVAFRGL [V12Y],2.36
12,LDMDEGTLSFICDGQYLGVAFRGL [V12C],3.24
13,LDMDEGTLSFIFDGQYLGVAFRGL [V12F],1.92
14,LDMDEGTLSFIHDGQYLGVAFRGL [V12H],1.62
15,LDMDEGTLSFIEDGQYLGVAFRGL [V12E],2.01
16,LDMDEGTLSFIGDGQYLGVAFRGL [V12G],1.94
17,LDMDEGTLSFIDDGQYLGVAFRGL [V12D],1.99
18,LDMDEGTLSFIRDGQYLGVAFRGL [V12R],1.84
19,LDMDEGTLSFSVDGQYLGVAFRGL [I11S],2.63
20,LDMDEGTLSFEVDGQYLGVAFRGL [I11E],1.39
21,LDMDEGTLSFHVDGQYLGVAFRGL [I11H],3.77
22,LDMDEGTLSFDVDGQYLGVAFRGL [I11D],1.68
23,LDMDEGTLSFMVDGQYLGVAFRGL [I11M],2.28
24,LDMDEGTLSFYVDGQYLGVAFRGL [I11Y],2.58

row,Variant,protein stability index
1,LDMDEGTLSFQVDGQYLGVAFRGL [I11Q],2.31
2,LDMDEGTLSFNVDGQYLGVAFRGL [I11N],2.49
3,LDMDEGTLSFFVDGQYLGVAFRGL [I11F],4.16
4,LDMDEGTLSFVVDGQYLGVAFRGL [I11V],1.47
5,LDMDEGTLSFCVDGQYLGVAFRGL [I11C],3.29
6,LDMDEGTLSFLVDGQYLGVAFRGL [I11L],3.07
7,LDMDEGTLSFTVDGQYLGVAFRGL [I11T],2.74
8,LDMDEGTLSFAVDGQYLGVAFRGL [I11A],1.72
9,LDMDEGTLSFWVDGQYLGVAFRGL [I11W],1.56
10,LDMDEGTLSFPVDGQYLGVAFRGL [I11P],2.25
11,LDMDEGTLSFRVDGQYLGVAFRGL [I11R],2.4
12,LDMDEGTLSFKVDGQYLGVAFRGL [I11K],1.94
13,LDMDEGTLSFGVDGQYLGVAFRGL [I11G],2.45
14,LDMDEGTRSFIVDGQYLGVAFRGL [L8R],2.11
15,LDMDEGTISFIVDGQYLGVAFRGL [L8I],2.43
16,LDMDEGTPSFIVDGQYLGVAFRGL [L8P],1.88
17,LDMDEGTTSFIVDGQYLGVAFRGL [L8T],1.87
18,LDMDEGTWSFIVDGQYLGVAFRGL [L8W],3.21
19,LDMDEGTFSFIVDGQYLGVAFRGL [L8F],2.3
20,LDMDEGTNSFIVDGQYLGVAFRGL [L8N],1.86
21,LDMDEGTDSFIVDGQYLGVAFRGL [L8D],2.21
22,LDMDEGTVSFIVDGQYLGVAFRGL [L8V],4.24
23,LDMDEGTQSFIVDGQYLGVAFRGL [L8Q],2.12
24,LDMDEGTCSFIVDGQYLGVAFRGL [L8C],3.35

row,Variant,protein stability index
1,LDMDEGTSSFIVDGQYLGVAFRGL [L8S],1.67
2,LDMDEGTMSFIVDGQYLGVAFRGL [L8M],2.72
3,LDMDEGTGSFIVDGQYLGVAFRGL [L8G],1.76
4,LDMDEGTKSFIVDGQYLGVAFRGL [L8K],1.47
5,LDMDEGTHSFIVDGQYLGVAFRGL [L8H],1.55
6,LDMDEGTESFIVDGQYLGVAFRGL [L8E],1.94
7,LDMDEGTASFIVDGQYLGVAFRGL [L8A],1.27
8,LDMDEETLSFIVDGQYLGVAFRGL [G6E],1.98
9,LDMDEFTLSFIVDGQYLGVAFRGL [G6F],2.25
10,LDMDEWTLSFIVDGQYLGVAFRGL [G6W],2.88
11,LDMDEYTLSFIVDGQYLGVAFRGL [G6Y],3.87
12,LDMDENTLSFIVDGQYLGVAFRGL [G6N],3.5
13,LDMDETTLSFIVDGQYLGVAFRGL [G6T],2.32
14,LDMDEQTLSFIVDGQYLGVAFRGL [G6Q],3.01
15,LDMDEITLSFIVDGQYLGVAFRGL [G6I],2.38
16,LDMDECTLSFIVDGQYLGVAFRGL [G6C],3.03
17,LDMDEKTLSFIVDGQYLGVAFRGL [G6K],2.78
18,LDMDESTLSFIVDGQYLGVAFRGL [G6S],4.16
19,LDMDERTLSFIVDGQYLGVAFRGL [G6R],2.28
20,LDMDEMTLSFIVDGQYLGVAFRGL [G6M],2.66
21,LDMDEATLSFIVDGQYLGVAFRGL [G6A],3.24
22,LDMDEHTLSFIVDGQYLGVAFRGL [G6H],2.65
23,LDMDEDTLSFIVDGQYLGVAFRGL [G6D],1.87
24,LDMDEPTLSFIVDGQYLGVAFRGL [G6P],1.72

row,Variant,protein stability index
1,LDMDEGTLKFIVDGQYLGVAFRGL [S9K],1.99
2,LDMDEGTLGFIVDGQYLGVAFRGL [S9G],2.99
3,LDMDEGTLVFIVDGQYLGVAFRGL [S9V],1.81
4,LDMDEGTLDFIVDGQYLGVAFRGL [S9D],1.87
5,LDMDEGTLNFIVDGQYLGVAFRGL [S9N],2.9
6,LDMDEGTLTFIVDGQYLGVAFRGL [S9T],2.45
7,LDMDEGTLHFIVDGQYLGVAFRGL [S9H],2.95
8,LDMDEGTLAFIVDGQYLGVAFRGL [S9A],3.98
9,LDMDEGTLPFIVDGQYLGVAFRGL [S9P],1.74
10,LDMDEGTLCFIVDGQYLGVAFRGL [S9C],2.76
11,LDMDEGTLYFIVDGQYLGVAFRGL [S9Y],2.89
12,LDMDEGTLEFIVDGQYLGVAFRGL [S9E],2.58
13,LDMDEGTLLFIVDGQYLGVAFRGL [S9L],1.75
14,LDMDEGTLQFIVDGQYLGVAFRGL [S9Q],2.01
15,LDMDEGTLSQIVDGQYLGVAFRGL [F10Q],2
16,LDMDEGTLSEIVDGQYLGVAFRGL [F10E],3.13
17,LDMDEGTLSDIVDGQYLGVAFRGL [F10D],2.79
18,LDMDEGTLSKIVDGQYLGVAFRGL [F10K],2.37
19,LDMDEGTLSTIVDGQYLGVAFRGL [F10T],2.44
20,LDMDEGTLSSIVDGQYLGVAFRGL [F10S],2.13
21,LDMDEGTLSRIVDGQYLGVAFRGL [F10R],2.21
22,LDMDEGTLSAIVDGQYLGVAFRGL [F10A],1.84
